Assay [1] deals with keratin of human hair. The assay is described as follows: quantitative hair binding test: human hair incubated with His-tagged comparison protein, detection with anti-polyhistidine peroxidase conjugate and TMB, absorption at 405 nm.
For assay [2], the target named is keratin of human hair. The assay is described as follows: quantitative hair binding test: human hair incubated with renatured His-tagged KBD-B, detection with anti-polyhistidine peroxidase conjugate and TMB, absorption at 405 nm.
Assay [3] has as its target keratin of human hair. Description: quantitative hair binding test with the denatured (not renatured) protein: human hair, detection with anti-polyhistidine peroxidase conjugate and TMB, absorption at 405 nm.

We go through two molecules from US20080075684A1.

As for “YaaD from B. subtilis (comparison protein, with His tag) (from UniProt P37527)”, the A405 nm in assay [1] was found to be 0.088.

B1: KBD-B (keratin-binding domain B of human desmoplakin), expressed by the vector pQE30-KBD-B in E. coli (protein)
chain: MRGSHHHHHHGSACELEPHTGLLLLSVQKRSMSFQGIRQPVTVTELVDSGILRPSTVNELESGQISYDEVGERIKDFLQGSSCIAGIYNETTKQKLGIYEAMKIGLVRPGTALELLEAQAATGFIVDPVSNLRLPVEEAYKRGLVGIEFKEKLLSAERAVTGYNDPETGNIISLFQAMNKELIEKGHGIRLLEAQIATGGIIDPKESHRLPVDIAYKRGYFNEELSEILSDPSDDTKGFFDPNTEENLTYLQLKERCIKDEETGLCLLPLKEKKKQVQTSQKNTLRKRRVVIVDPETNKEMSVQEGVDLQPSLIS
For the molecule B1, the A405 nm in assay [2] was 1.59; in assay [3], 0.254.
